Laboratory results: the RNAGym collection of RNA variant scans (doi:10.1093/nar/gkz1192)

B1: CPEB3 Ribozyme (parent)
chain: UAACAGGGGGCCACAGCAGAAGCGUUCACGUCGCAGCCCCUGUCAGAUUCUGGUGAAUCUGCGAAUUCUGCUGUAUAUCUC

Variants of: B1
Assay: self-cleavage, relative activity (ratio to wild type); higher = more cleavage; in vitro, sequencing
How it was run: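 Barcoded CPEB3 ribozyme mutants, produced by rounds of error-prone PCR, self-cleaved while being transcribed with T7 RNA polymerase for 5 hours at 37°C and during a subsequent 15 min DNase I step before EDTA was added. Sequencing of template-switched cDNA on Illumina gave cleaved and total reads, and DNA sequencing assigned barcodes to variants. Each variant's relative activity is its cleaved/total read fraction divided by the unmutated ribozyme's fraction, averaged across three batches. A variant needed a minimum of 5 reads.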

Variant	self-cleavage
U31G A57G	0.48
U31G U69A	0.22
U31G U69C	0.18
U31G C44U	0.16
U31C C71G	0.23
U31C C71U	0.25
C32A C59A	0.15
U31C U41C	0.82
U31C U41G	0.34
U31C U41A	0.29
U31C U66C	0.27
U31C U66G	0.35
U31C U66A	0.28
U31G C40G	0.12
C32A G61A	0.19
C32A U41A	0.27
C32A U41C	0.36
C32A G46A	0.11
U31G	0.5
C32A C68U	0.22
U31G G53A	0.18
U31C C81U	1.14
U31C C81G	0.55
C32A C38G	0.18

Variant	self-cleavage
C32A C38A	0.25
U31G A35G	1.1
U31G A35U	0.36
U31G U43C	0.36
C32A G70U	0.12
U31C G42A	0.35
U31C G42U	0.13
U31G U60C	0.31
U31G U60A	0.32
U31G C39U	0.34
U31G U54C	0.63
U31G U54A	0.62
U31C U51A	0.89
U31C U51G	0.89
U31C U51C	0.78
U31C U48A	0.39
U31C U48C	0.37
U31C G36A	0.13
U31C G36U	0.14
C32A U43A	0.5
C32A U43C	0.35
C32A U48G	0.24
C32A U48C	0.22
C32A A77U	0.33

Variant	self-cleavage
U31C G55U	0.76
U31C G55A	0.78
U31G A45U	0.57
U31G A45C	0.33
U31G A45G	0.37
U31C U67A	0.34
U31C U67C	0.26
U31C C68U	0.75
U31C C68A	0.28
U31C G33A	0.21
U31G G36U	0.15
U31G G33A	0.57
C32A A35G	0.87
U31C U54C	0.8
U31C U54A	0.92
U31C U54G	0.68
U31G U49A	0.34
U31G U49C	0.26
U31G A77G	0.59
U31G G55A	0.21
U31G A64G	0.46
U31C U74C	1.18
U31C U74A	1.18
U31C U74G	1.23

Variant	self-cleavage
C32A C62G	0.13
C32A U51A	0.24
C32A U51C	0.29
U31G A56G	0.45
U31C U49A	0.5
U31C U49G	0.3
U31C U49C	0.23
U31C U76G	0.8
U31C U76A	0.77
U31C U76C	0.88
U31G C32A	0.28
U31G C32U	0.22
U31G U80C	0.72
U31G U80A	0.59
U31C G46U	0.23
U31C G46A	0.15
U31G C68A	0.31
C32A	0.29
U31G U72A	0.5
U31G U72G	0.92
U31G U72C	0.82
U31G C79A	0.56
U31G U51C	0.52
U31G U58A	0.44

Variant	self-cleavage
U31G U58C	0.4
U31C U43G	0.36
U31C U43C	0.49
U31C U43A	1.03
C32A U49C	0.15
C32A U49A	0.11
C32A C34G	0.44
U31G A65G	0.22
C32A G63A	0.4
C32A A45U	0.35
C32A A45G	0.32
U31G U74C	0.96
U31G U74G	0.99
U31G U74A	1.02
U31G A75G	0.54
U31G A75U	0.46
U31G G52A	0.74
C32A G55A	0.5
U31G U41A	0.29
U31G U41C	0.33
U31C G53A	0.91
U31C G53U	1.06
C32A C40A	0.11
C32A C40G	0.43

Variant	self-cleavage
C32A C40U	0.2
U31C U78G	0.84
U31C U78C	0.87
U31C U78A	0.86
U31C G61C	0.14
C32A G73A	0.49
C32A G73C	0.17
U31G U67A	0.25
U31G U67C	0.3
U31C G73A	1.26
U31G C34A	0.14
U31G C34U	0.18
C32A A47G	0.14
C32A A56G	0.15
U31C G70A	0.25
U31C G70C	0.18
U31C G63A	0.67
U31C G63U	0.8
U31C U58G	0.39
U31C U58C	0.33
U31C U58A	0.31
U31C C79A	0.94
U31C C79U	1.1
U31C U69C	0.31

Variant	self-cleavage
U31C U69G	0.41
U31C U69A	0.37
C32A A75C	0.56
C32A A75U	0.16
U31C U60A	0.34
U31C U60G	0.15
U31C U60C	0.29
U31C G52C	1.14
U31C G52A	1.06
U31G C62G	0.15
C32A A57G	0.24
C32A A57U	0.2
U31C U80G	1.13
U31C U80C	0.96
U31C U80A	1.01
U31C U72G	0.46
U31C U72C	0.97
U31C U72A	0.5
C32A G52A	0.29
C32A G52C	0.1
C32A G52U	0.13
C32A A64G	0.1
U31G U66C	0.37
